{"source": "patent US9289468B2", "about": "“Fusion protein comprising circularly permuted form of trail/Apo2L, coding gene and use thereof” (Beijing Sunbio Biotech Co. Ltd., priority 2011, dated 2016)", "key": {"[1]": {"tested_on": "NCI-H460 cells", "assay": "Assay of killing activity on lung cancer cell line (crystal violet, IC50)", "assay_type": "cell-based, human", "protocol": "The NCI-H460 cells (ATCC) were cultured in flasks until logarithmic growth phase, digested with 0.25% trypsin (Amresco), collected by centrifugation (1000 rpm, 5 min), resuspended in RPMI1640 medium (Invitrogen) containing 3% fetal bovine serum (FBS), counted and adjusted to 1.5×10^5/ml cell suspension, added into 96-well culture plates (Nunc) at 100 μl/well, and incubated at 37° C. in 5% CO2 incubator overnight. The sample to be tested was diluted to a certain concentration with 1640 medium containing 3% FBS, and further diluted at 4-fold dilutions (8 dilutions). The supernatant in the culture plate was discarded, and serial dilutions of the sample to be tested was added into the plate at 100 μl/well with a negative control and blank control set aside, incubated at 37° C. under 5% CO2 for 20-24 hours. Following examination under microscope, the supernatant was discarded, each well was added 50 μl 0.05% crystal violet solution (50 mg crystal violet was dissolved in 20 ml anhydrous ethanol, and water was added to the volume of 100 ml, then stored at room temperature) and stained for 3-5 minutes. The crystal violet was carefully washed with flowing water, the remaining water was removed by spin-drying, a destaining solution (50 ml distilled water, 50 ml anhydrous ethanol, and 0.1 ml glacial acetic acid were thoroughly mixed and stored at room temperature) was added at 100 μl/well, then the reading at OD570 was measured on a microplate reader (Bio-Rad 680) (reference wavelength of 630 nm). The inhibitory concentration 50 (IC50) of each sample was calculated by a four-parameter Logistic fitting using Sigmaplot10.0 software. The IC50 for CPT and each mutant of NCPT-1, NCPT-2, and NCPT-3 were calculated, and the activity change of each mutant was represented as a ratio of the IC50 of each mutant to that of CPT (Table 1)."}, "[2]": {"tested_on": "human multiple myeloma cell RPMI 8226", "assay": "Morphological observation of induced apoptosis (MGG staining)", "assay_type": "cell-based", "details": "200 ng/ml, 3 h", "protocol": "FIG. 3. The morphological change of the apoptosis of human multiple myeloma cell RPMI 8226 induced by NCPT-1.M1. The cells were incubated with NCPT-1.M1 (200 ng/ml) for 3 h and then prepared as smears before MGG staining.\nThe RPMI 8226 cells (ATCC) were cultured in cell culture flasks until logarithmic growth phase, collected by centrifugation, resuspended with complete medium (10% FBS-RPMI1640) at 1×10^6/well, added into 6-well cell culture plate (Costar). The NCPT-1.M1 was diluted with complete medium, added to a final concentration of 200 ng/ml, incubated at 37° C. in 5% CO2 incubator for 3 h. The cells were collected, prepared as smears, fixed with methanol before May-Grünwald-Giemsa (MGG, May-Grünwald stain, commercial available from Beijing ZhongYe HengYuan Chemicals, Giemsa stain, commercial available from Solarbio) staining."}, "[3]": {"tested_on": "NCI-H460 cells", "assay": "Internucleosomal DNA fragmentation (agarose gel electrophoresis)", "assay_type": "cell-based, human", "details": "15 ng/ml, 2 hours", "protocol": "FIG. 5. The agarose gel electrophoresis analysis of internucleosomal DNA fragmentation of NCI-H460 cells after incubated with NCPT-1.M1 for varying time.\nMarker: 200 bp-2000 bp DNA markers with 200 bp interval;\nControl: solvent control;\n2 h, 4 h, 6 h: represent incubation with 15 ng/ml NCPT-1.M1 for 2 h, 4 h, 6 h, respectively.\nNCI-H460 cells at logarithmic growth phase were incubated with NCPT-1.M1 (a final concentration of […]) for 2 h, 4 h, 6 h, and the medium control group was not added with NCPT-1.M1. All adherent and floating cells (approximately 5×10^6) were collected, and DNA was extracted (Wen Jinkun, Principles and experimental techniques of medical molecular biology, 236-237 (1999)). DNA sample was removed and mixed with 6× loading buffer, and subjected to 1.8% agarose gel (a final concentration of ethidium bromide of 0.5 μg/ml) electrophoresis. The gel was observed under ultraviolet light source and photographed, and analyzed for DNA fragmentation. […] To the contrary, in the DNA electrophoresis of the medium control group, a band corresponding to a macromolecule is very near to the loading well, and there is no DNA fragmentation ladder. With the increasing incubation time with NCPT-1.M1, the DNA ladder becomes weaker and vague, and is illegible (FIG. 5), which might be due to DNA being degraded into smaller fragments."}, "[4]": {"tested_on": "human MM RPMI8226 tumor cells", "assay": "Apoptosis-inducing activity in vivo, RPMI8226 xenograft", "parameters": "species or system Balb/c nu athymic nude mice", "from_the_text": "Athymic nude mice were subcutaneously inoculated with human MM RPMI8226 tumor cells and treated with NCPT-1.M1, then tumor tissue was resected and subjected to conventional HE staining (A, B) and TUNEL staining of apoptotic cells (C, D).\nBalb/c nu athymic nude mice (Beijing Huafukang Biotechnology Co., Ltd.) were subcutaneously inoculated with human MM RPMI8226 tumor cells. When the tumor grew to the volume of 700-800 mm3, the mice were divided into a control group (n=3) and a CPT treatment group (n=3), and were intraperitoneally injected with control or NCPT-1.M1 at a dose of 15 mg/kg once a day for 3 consecutive days. On day 4, the tumor volumes were measured (method same as the above), all animals were sacrificed, the tumors were resected and fixed in 10% formaldehyde solution. The tumor tissues were embedded in paraffin, cut into sections, and HE stained following the conventional methods. The apoptotic assay of the paraffin-embedded tissue sections were carried out following instructions of TUNEL Apoptosis Detection Kit (ZK-8005, Beijing Zhongshan Golden Bridge Biotechnology Co., Ltd.). […] To the contrary, the nucleus of normal cells are light blue or blue (FIG. 7A). Upon TUNEL staining, the nuclei of apoptotic cells are stained as brown (FIG. 7D)."}, "[5]": {"tested_on": "human multiple myeloma cell line U266", "assay": "Combination with melphalan, cell survival (ATPlite)", "assay_type": "cell-based", "protocol": "FIG. 9. […] U266 cells are insensitive to CPT. At the concentration of 1 μg/ml, NCPT-1.M1 alone has a mild killing effect on U266 (<20%), but with the presence of melphalan (12.5˜50 μg/ml), both of them can cause enhanced killing effect. The cell viability was assayed with ATPlite luminescent system (PerkinElmer), the data as shown in this figure are all represented as the mean±standard deviation, n=4, #P<0.05, ##P<0.01 vs. melphalan group; *P<0.05 vs. NCPT-1.M1 group."}}, "data": [{"molecule": "NCPT-1.M1: MG+His6+NCPT-1 fusion protein, SEQ ID NO: 5 (protein, NCPT-1.M1 polypeptide sequence) MGHHHHHHTLSSPNSKNEKALGRKINSWESSRSGHSFLSNLHLRNGELVIHEKGFYYIYSQTYFRFQEEIKENTKNDKQMVQYIYKYTSYPDPILLMKSARNSCWSKDAEYGLYSIYQGGIFELKENDRIFVSVTNEHLIDMDHEASFFGAFLVGGGGGGRVAAHITGTRGRSNT", "values": [{"measurement": "Ratio of IC50 of mutants to IC50 of CPT (H460 cells)", "setting": "[1]; 20-24 hours, crystal violet", "value": 0.1}, {"measurement": "killing activity compared to that of CPT", "setting": "[1]; based on IC50", "value": "significantly higher than that of CPT"}, {"measurement": "morphological features of apoptosis (MGG staining)", "setting": "[2]", "value": "obvious features of apoptosis were observed"}, {"measurement": "DNA fragmentation ladder", "setting": "[3]", "value": "showed obvious ladder"}, {"measurement": "average tumor volume after treatment", "setting": "[4]; 15 mg/kg i.p. once a day for 3 consecutive days, day 4", "value": 286, "unit": "mm^3"}, {"measurement": "apoptosis of tumor cells in tumor tissue (HE and TUNEL staining)", "setting": "[4]; 15 mg/kg i.p. once a day for 3 days", "value": "can quickly result in apoptosis of a lot of MM tumor cells"}, {"measurement": "average tumor volume before dosing", "setting": "[4]; RPMI8226 xenograft, before dosing", "value": 798, "unit": "mm^3"}, {"measurement": "killing effect", "setting": "[5]; 1 μg/ml alone, U266", "value": "< 20", "unit": "%"}, {"measurement": "sensitivity of the cell line", "setting": "[5]; U266 / U266B1", "value": "insensitive"}]}]}
